Biological target: CH848 day 949 SOSIP Env trimer (soluble SOSIP trimer derived from a virus isolated from the CH848 individual at day 949 post infection) (HIV-1)
Test: method not stated; affinities shown in Figure 1B; reference DH270 UCA

DH270.I5 Fab
fold improvement of Env binding affinity relative to the UCA: 8 fold
